From the DeepSol protein solubility set

test: soluble on expression in E. coli; label from the status in PepcDB or PDB records

For “MSLDKIMNEAISPWMKGDGPDSDIVLSSRIRLARNFKQYQFSTMQNEEEAQKVQELFKKKFINKAVEPFGKFGLLKMNELTPLQRRVLVEKHLISPNLAGTEYGACLLSESEHISVMLNEEDHIRIQCLFPGLQLSKALQSANQIDNWIEKEVEYAFDESLGYITSCPTNVGTGLRASVMIHLPGLVLTKRISRIIQVIQKLGLVVRGIYGEGSEALGNIFQVSNQMTLGKSEEDIIADLKSVMQQIIQQEKLARELIVQNSSIELEDKVYRSYGILANSRLIQSAEAATCLSDVRLGIDLGYIKGISRNILTELMVLTQPGILQQYAGGPLGPEERDYRRATLIRERLRIEKN”, which “soluble on expression in E. coli” value is on record?
The value was “not soluble”.

With “MKITHCKLKKKVQKELLRFFVLEVTARSAADILGIHPNSAVLFYRKIRMVISHYLALAANEVFEGSVELDESYFGGRRKGKRGRGAAGKVVVFGILKRNGRVYTVVVDNAKSDTLMPVIKQKIMPDSIVYTDSLSSYDKLDVSGFIHYRINHSKEFADRQNHINGIENFWNQAKRVLRK” as the sequence, how does the “soluble on expression in E. coli” value read?
Its value is “not soluble”.

For “MKKYSFPVTYENVRFPPNGQLKLPVMPAEPFYDAEKGEKKYKSTKRMIEARGVEEVHTELIHEQYGLAAVSGGFIDSDDFKFIQDRINKNLIDNQFSVWRVDAPWLPRTKKAQGTRLGGGKGSIQKYVTPVRANRIILEVGGHITEIEAKAFLLYLCERFSFPVEFVSETMLAERRKKAEEERAMNKNGFNWGKVIKYNMQNCNSWLSSYDVAWKGKYR”, which “soluble on expression in E. coli” value is on record?
Its value is “not soluble”.

For “MATFYEVIVRVPFDVEEHLPGISDSFVDWVTGQIWELPPESDLNLTLVEQPQLTVADRIRRVFLYEWNKFSKQESKFFVQFEKGSEYFHLHTLVETSGISSMVLGRYVSQIRAQLVKVVFQGIEPQINDWVAITKVKKGGANKVVDSGYIPAYLLPKVQPELQWAWTNLDEYKLAALNLEERKRLVAQFLAESSQRS”, which “soluble on expression in E. coli” value is on record?
The value was “soluble”.

With “LNNRKQMAQQKFAFYEKSLPNKKRSFFEMKYYNDVTTPKIYRLTDQEMKLFDKLEA” as the sequence, how does the “soluble on expression in E. coli” value read?
Its value is “not soluble”.

For “MENSDDIRLIVKIAQLYYEQDMTQAQIARELGIYRTTISRLLKRGRDQGMVTIAINYDYNENLWLEQQLKQKFGLKDVVVVSGNDEDEETQLAMMGLHGAQLLDRLLEPGDIVGFSWGRAVSALVENLPQAGQSRQLICVPIIGGPSGKLESRYHVNTLTYSAAAKLKGESHLADFPALLDNPLIRNGIMQSQHFKTISAYWDNLDIALVGIGSPAIRDGANWHAFYGGEESDDLNARQVAGDICSRFFDIHGAMVETNMSEKTLSIEMNKLKQARYSIGIAMSEEKYSGIIGALRGKYINCLVTNSSTAELLLK”, which “soluble on expression in E. coli” value is on record?
Its value is “soluble”.

With “MTRLAVEAAEQARLAAEVEAQRIAAETAEHARVVAEAEAKRVADEQALFAAEAEAHRITAEAAEQARMEAEAQAQRDADEHARVTAEAQALEAGKTLRLPEAGTPQLGAVAGVISVTAGSGLFLDATIQAAIEILAALVGTAVSSTTAVGIGTLLYSPSLGNGELPGRMLDLPARVLMPDLPDALNDVAATGGTVDMPYRIYGDQSKYSVVATQPEGGFSPKVPVRALILDPVANAYTFTTSDTPPITLTFPIAAPENSSTTTVAQPIETPAYTGITLEPIEVKAEPLPATSPLDIRDAIYVYPVNSGLPPVYVVFSSPYEGATTKGEHSGRMYDPDNAGGPTQNLDWTTASVTQNGIDLVKLHTGRFEPSDANAVMIDRLEKILRSELSMTDTDKRFYTHELRELERYRALGVADGVEGEVWNNAHTATLEDYKLKDSSESFYTPEAITAENKQVYGELEHHHHHH” as the sequence, how does the “soluble on expression in E. coli” value read?
The value was “not soluble”.

With “MNYTEHYHDWLRDAHAMEKQAESMLESMASRIENYPDIKARIEQHISETKHQITMLEEVLDRNGISRSVLKDSMSKMAAMGQSIGGMFPSDEIVKGSISGYVFEQFEIACYTSLLAAAKKAGDTASIPTIEAILKEEMQMADWLIKHIPQTTEQFLLRSEADGVEAKK” as the sequence, how does the “soluble on expression in E. coli” value read?
The value was “not soluble”.

Which “soluble on expression in E. coli” value does the source give for “MAHHHHHHMIKLGNFAWQLLTRADGSNLGGVLRGSRKVCSLSVARLSKHPYKPKTKEVIHPHVTPPEFLSPSDCFEAKTDELQQYLPSNYYRTKWVESLRAGEHLGSDYPWNLLPHWKFWKKRKYNVVYGEVPWFVSKVKGVSYYQRLNVWMVQWVEEGVHRIRRFRCAFGVLQAKLAAEQFRRNLEESGRVDNRKSERQLRMDYIQKRDERLLRKKRYSKVSKGQF” here?
The value was “not soluble”.

Which “soluble on expression in E. coli” value does the source give for “KKIKVYIELDLGGPITVGFPTHISDGISLLGSTNIFDDISEAYFTPKDEEILKRDPDIIIYEPKRLTDYEKERFYSILRKRDLFQLLNKRLIFTKGDYLAHMGPSFITDVLIWLKSVL” here?
Its value is “not soluble”.

With “MSLTRDEIAKYYEAHKGQFVSGRKVRLGLVIFPPRDDADALAAQVKSGAMTFADLAARHSIGPNPQNGGVIGDLLWSDLSMEWRDTLSELKPGDVSRVFLVEGRKAVLQLVASNEGKGQALDDVAEEIENILREPKMQERLQEYIGQLRSRAVIDIREGHHHHHH” as the sequence, how does the “soluble on expression in E. coli” value read?
The value was “soluble”.

With “SNAMSQKLYNMKFAAVYLALIAKVERKGGKAESVHQVTSWLTGYEVSDVLACLDRDVTYGDFFRQAPYYVPERIAITGKICGVRIEEIDDPLMQEIRRLDKLVDWLAKGKTSQQVLEKYEKHK” as the sequence, how does the “soluble on expression in E. coli” value read?
The value was “soluble”.

Which “soluble on expression in E. coli” value does the source give for “MGSDKIHHHHHHMSQFEQDAHLKQQSDRALSDHELQADHTRQKTHELPAHFDFQQAGKQVLSIERDGLAQLDQYIDDNFTLACKNIFHCKGKVVVMGMGKSGHIGCKIAATFASTGTPAFFVHPGEASHGDLGMVTPHDIVIAISNSGESHEILSLIPVLKRQKVFLICMTSAPESTMGKAADIHLCVHVPQEACPLGLAPTTSTTATLVMGDALAVALLQARGFTAEDFALSHPGGALGRKLLLRVSDIMHSGDEIPHVPHDASLRDALVEITRKNLGMTVICEADMKIQGIFTDGDLRRIFDMNIDLNSARIADVMTAGGIRVAPQTLAVDALNLMQSRHITSVLVAENDRLVGIVHMHDMLRAGVV” here?
Its value is “not soluble”.

For “MGSSHHHHHHSSGLVPRGSHMAMVELSGTVTFWDTSNEAEKATYQALAEGFEKEHPKVDVKYVNVPFGEANAKFKNAAGGNSGAPDVMRTEVAWVADFASIGYLAPLDGTPALDDGSDHLPQAAASTRYEGKTYAVPQVIDTLALFYNKELLTKAGVEVPGSVAELKTAAAEITEKTGATGLYLRGDDPYWFLPYLYGEGGDLVDEKNKTVTVDDEAGVRAYRVIKDLVDSKAAITDASDGWNNMQNAFKSGKVAMMVNGPWAIEDVKAGARFKDAGNLGVAPVPAGSAGQGSPQGGWNLSVYAGSKNLDASYAFVKYMSSAKVQQQTTEKLSLLPTRTSVYEVPSVADNEMVKFFKPAVDKAVERPWIAEGNALFEPIRLQMANVLSGETSPDEAAANTGDAYRKLLKDYK”, which “soluble on expression in E. coli” value is on record?
The value was “soluble”.

For “MEGNHEEPQGGLEELSGRWHSVALASNKSDLIKPWGHFRVFIHSMSAKDGNLHGDILIPQDGQCEKVSLTAFKTATSNKFDLEYWGHNDLYLAEVDPKSYLILYMINQYNDDTSLVAHLMVRDLSRQQDFLPAFESVCEDIGLHKDQIVVLSDDDRCQGSRDLEHHHHHH”, which “soluble on expression in E. coli” value is on record?
Its value is “soluble”.

For “HHHHHHSSGLVPRGSHMSVKKAGVLGATGSVGQRFILLLSKHPEFEIHALGASSRSAGKKYKDAASWKQTETLPETEQDIVVQECKPEGNFLECDVVFSGLDADVAGDIEKSFVEAGLAVVSNAKNYRREKDVPLVVPIVNPEHIDVVENKVKQAVSKGGKKPGFIICISNCSTAGLVAPLKPLVEKFGPIDALTTTTLQAISGAGFSPGVSGMDILDNIVPYISGEEDKLEWETKKILGGVNAEGTEFVPIPESEMKVSAQCNRVPVIDGHTECISLRFANRPAPSVEDVKQCLREYECAASKLGCHSAPKQTIHVLDQPDRPQPRLDRDRDSGYGVSVGRIREDSLLDFKMVVLSHNTIIGAAGAGILIAEILKAKNII”, which “soluble on expression in E. coli” value is on record?
The value was “soluble”.

For “MIYEFCAENVTLLEKAMQAGARRIELCDNLAVGGTTPSYGVTKAAVELAANYDTTIMTMIRPRGGDFVYNDLEIAIMLEDIRLTAQAGSQGVVFGALTADKKLDKPNLEKLIAASKGMEIVFHMAFDELSDEDQAEAIDWLSQAGVTRILTRAGVSGDSLEKRFVHYHRILEYAKGKIEILPGGGIDLENRQTFIDQVGVTQLHGTKVVFLEHHHHHH”, which “soluble on expression in E. coli” value is on record?
Its value is “soluble”.

With “GSMAGSVGAAAPVTAANGDDSESETSESDDDSPPRPAAVAVHKREEDEEEDDEFEEVADDPIVMVAGRPFSYSEVSQRPELVAQMTPEEKEAYIAMGQRMFEDLFE” as the sequence, how does the “soluble on expression in E. coli” value read?
The value was “soluble”.

For “MSLKGKIIEKVISKVKCKSDENYKIGLWVRDSTAGIGTLTFYSDKTKVFGALGHPITDVDTGDIINISRGSLIDSSIVSVNKGIRGNPGELRGIFINENKPIGIVKNNTICGLFGKGYEKFEGLQYNKPMEVAMRNEVKLGPAKILTTIDGSQPKMYAINIEKLFDQSSPNPKSMMIKVTDAELLDKTGGIVQGMSGSPIIQNNKVVGAVTHVLINKPDTGYGVYIEWMLKSAGILEGHHHHHH”, which “soluble on expression in E. coli” value is on record?
Its value is “soluble”.

With “MGSDKIHHHHHHMQENRYNTCDRFLGGLEKDFIITEQIEDSPLTSEPSFLDYGIIAVCNRGSAIIHLLDNKHVWNKNELIFLFPRQLCSMRNVSEDFSAKFIIIPHVLHGDVLSSLRHFDPGFHFFVKDHFYYNIEDNNGIERFQSFCKLIENELERYRGNGLLRERIICYLGIFYMDVYDYYVKVRKKIPFRTSLRKEQLIYDFCSLVAENFKNHKNVGFYADKLNITTTYLSAIMNERCGISAKEFLSIYIVLEVKSLLRDSRLNIQEIAILTNFPSQSTLNRFFRQRTGMTLSQYRKHIFST” as the sequence, how does the “soluble on expression in E. coli” value read?
The value was “not soluble”.

For “MSLERQTLKQKLSTLIQPLQTAKRGAPLTNRTLSATTCQQIESLVTAIEALNPNLSPLLYSPQLLDGNWWLNYSTAREIRSLDKLPLGLKVGRIYQIINVPNQSFLNQAFVYHPLGLAKGYVKVTAKFEIAKPAGTVLPDKRINVEFLERMISIQKLMGVPTPKLDPAKVVPARSPEGRIPFLEITYLDDDLRIGRGGEGSLFVLSKVSEVTPLEHHHHHH”, which “soluble on expression in E. coli” value is on record?
The value was “not soluble”.

For “MSLNAEIGIDSITLSIARVTPSTHWTFVEIVDEENRIGLGEATLTGRDSELLRAASDMFPAIVDMRVDDAASWLDTLELGTIARAAVASALSHAVTDLRARIRNRSIAELLGHPVRAFIPMYANINRRTHTRSPDSFAHSARSAVAAGFSAVKIAPFDGVTLYGSDAHAQPSLIDAALERIAAVRDAVGPAVDVMVDCHWRLNAHVARQVLASDVCDGLHWLECPLPETPDRLHELRALRSLANDRGIRLAGCEEAIRAEGFMPFVEAGAYDVMMPDVKYVGSVDEMLHVAQLLGRHDVEFSPHNPSGPVAHAVSMQICSLVPNFRRMEMQFDETPYFHTLTGATVPVPDNGGAQIARTSGIGMRLDRDALDPLTIRRLQFHRACRAGELVVTEGHHHHHH”, which “soluble on expression in E. coli” value is on record?
Its value is “soluble”.

For “MAGDPMNNNSKNNSRNVVTMNQASQSYAAQESSKMCLFEPRVFSDTQDIADELKNRRATLVNLQRIDQVSAKRIIDFLSGTVYAIGGDIQRVGTDIFLCTPDNVEVAGSITDHIENMEQHYELEHHHHHH”, which “soluble on expression in E. coli” value is on record?
The value was “not soluble”.

For “MGSDKIHHHHHHMSDSIYSIGTQGQPWTDEDKDLWLSKQVIKRSYQDEVLSKFESVTSSFDMIQYGSLSIDESRYPLYAMRSKNWQSKNKTVLVTGGVHGYETSGVQGAIRFLETSAKDFSQRFNIIVVPCVSPWGYETINRWNNEAIDPNRSFYLDSPAQESAALMSFINELDVNIAMHIDLHETTDTDNSEFRPALAARDAIEQKNWNIPDGFYLVGDSTKPAADFQGAINQAVAKVTHIAPEDSNGKLIGVDIEQFGVINYAGRELGLCMGLTDAPYVTTTEVYPDSPLVDDENCITAQVAAISAAITFI”, which “soluble on expression in E. coli” value is on record?
Its value is “not soluble”.
